Results: patent publication US20040265808A1, “Genes involved in osteogenesis, and methods of use” (priority 2001, published 2004)

B1: 55 (nucleic acid, listed as Mus musculus)
chain: CGATCGATATGTCTTCAGGAAATGCAAAAATTGGGTATCCTGCTCCCAACTTCAAAGCTACAGCTGTTATGCCAGATGGACAATTCAAAGATATCAGCCTAAGTGAATACAAAGGAAAATATGTTGTGTTCTTCTTTTACCCTCTTGACTTTACTTTTGTGTGTCCCACGGAGATCATTGCTTTCAGTGATAGAGCCGATGAATTTAAGAAACTCAACTGCCAAGTGATTGGCGCTTCTGTGGATTCTCACTTCTGTCATCTGGCATGGATTAACACACCCAAGAAACAAGGAGGATTGGGACCCATGAACATTCCCTTAATATCAGATCCCAAGCGCACCATTGCTCAGGATTATGGAGTCTTAAAGGCTGATGAAGGTATCTCTTTCAGGGGCCTTTTTATTATTGATGATAAAGGTATCCTTCGACAGATAACAATAAACGATCTTCCCGTTGGCCGCTCTGTGGATGAGATTATACGACTAGTCCAGGCCTTCCAGTTCACTGACAAACATGGTGAAGTGTGTCCAGCTGGCTGGAAACCTGGCAGTGATACCATCAAGCCTGATGTCAATAAGAGCAAAGAGTATTTCTCTAAGCAGAAGGCGGCCGCTT
B2: 42 (nucleic acid, listed as Mus musculus)
chain: CGATCGATATGGCAGACACGTTTTCGCTTAACGATGCCTTAGCTGGCTCTGGAAACCCAAACCCTCAAGGATATCCGGGTGCATGGGGGAACCAGCCTGGGGCAGGGGGCTACCCAGGGGCTGCCTATCCTGGGGCCTATCCAGGACAGGCTCCTCCAGGGGCCTACCCAGGACAGGCTCCTCCAGGGGCCTATCCAGGACAGGCTCCTCCTAGTGCCTACCCCGGCCCAACTGCCCCTGGAGCTTATCCTGGCCCAACTGCCCCTGGAGCTTATCCTGGCTCAACTGCCCCTGGAGCCTTCCCAGGGCAACCTGGGGCACCTGGGGCCTACCCCAGTGCTCCTGGAGGCTATCCTGCTGCTGGCCCTTATGGTGTCCCCGCTGGACCACTGACGGTGCCCTATGACCTGCCCTTGCCTGGAGGAGTCATGCCCCGCATGCTGATCACAATCATGGGCACAGTGAAACCCAACGCAAACAGGATTGTTCTAGATTTCAGGAGAGGGAATGATGTTGCCTTCCACTTTAACCCCCGCTTCAATGAGAACAACAGAAGAGTCATTGTGTGTAACACGAAGCAGGACAATAACTGGGGAAAGGAAGAAAGACAGTCAGCCTTCCCCTTTGAGAGTGGAAAACCATTCAAAATACAAGTCCTGGTTGAAGCTGACCACTTCAAGGTTGCGGTCAACGATGCTCACCTACTGCAGTACAACCATCGGATGAAGAACCTCCGGGAAATCAGCCAACTGGGGATCAGTGGTGACATAACCCTCACCAGCGCTAACCACGCCATGATCGCGGCCGCTT
B3: 63 (nucleic acid, listed as Mus musculus)
chain: CGGAATTCGCCATGTCAACAGCAGGAGTTGCTGCTCAGGATATTCGAGTCCCATTAAAAACTGGATTTCTCCATAATGGTCAGGCCTTGGGGAATATGAAGTCCTGCTGGGGCAGTCACAGTGAGTTTGAAAATAACTTTTTAAATATTGATCCAATAACCATGGCCTACAATCTGAACTCCCCTGCTCAGGAGCACCTAACAACTGTTGGATGTGCTGCTCGGTCTGCTCCAGGGAGCGGCCACTTCTTTGCAGAGTGTGGTCCATCTCCAAGGTCAAGCTTGCCCCCTCTTGTTATCTCACCAAGTGAAAGCTCGGGACAGCGTGAAGAGGATCAAGTTATGTGTGGTTTTAAGAAACTCTCAGTGAATGGGGTCTGCACTTCCACACCTCCACTTACACCCATTAAAAGCTGCCCTTCCCCTTTCCCCTGTGCGGCTCTGTGTGATCGGGGTTCTCGGCCGCTCCCGCCACTGCCCATCTCTGAAGACCTATGTGTGGATGAGGCCGACAGTGAGGTAGAGCTTCTAACCACCAGCTCAGACACAGACTTGCTTTTAGAAGACTCTGCGCCTTCAGATTTCAAATACGATGCTCCTGGCAGGCGCAGCTTCCGTGGGTGCGGCCAGATCAACTATGCATATTTTGACAGCCCAACTGTTTCTGTGGCAGATCTTAGCTGTGCATCTGACCAGAACAGAGTTGTTCCAGACCCAAACCCTCCCCCACCTCAAAGCCATCGCAGATTAAGGAGGTCTCACTCAGGACCAGCTGGGTCATTTAACAAGCCAGCCATTCGGATATCTAGCTGCACACACAGAGCTTCTCCTAGCTCTGATGAAGACAAGCCTGAGGTCCCTCCCAGGGTTCCTATACCTCCTAGGCCAGCAAAGCCAGACTATAGACGGTGGTCAGCAGAAGTGACCTCCAACACCTACAGTGATGAAGATAGGCCTCCCAAAGTCCCCCCGAGAGAACCTTTGTCTCGGAGTAACTCCCGTACCCCAAGTCCTAAAAGCCTTCCGTCTTACCTCAATGGGGTCATGCCCCCAACACAGAGCTTCGCTCCTGACCCCAAGTATGTCAGCAGCAAAGCCCTGCAGAGACAGAGCAGCGAAGGATCTGCCAACAAGGTTCCTTGCATCCTGCCCATTATTGAAAATGGGAAGAAGGTTAGCTCAACGCATTATTACTTACTACCTGAGAGGCCACCGTACCTGGACAAATATGAAAAGTATTTTAAGGAAGCAGAAGAAACAAACCCAAGCACCCAAATTCAGCCATTACCTGCTGCCTGTGGTATGGCCTCTGCCACAGAAAAGCTGGCCTCCAGAATGAAAATAGATATGGGTAGCCACGGGAAGCGCAAACACTTATCCTACGTGGTTTCTCCAGCGGCCGCTT
B4: 11 (nucleic acid, listed as Mus musculus)
chain: AATCTAGAATGCAGTGGGCCTCCGTCCTGCTGCTGGCTGGGCTCTGCTCACTTTCCCAGGGCCAGTATGATGAAGACTCTCACTGGTGGATCCAATACCTCCGAAACCAGCAGTCCACCTACTACGACCCCTATGACCCTTACCCCTATGAGCCCTCTGAGCCTTACCCCTATGGAGTGGAAGAAGGCCCAGCCTATGCCTATGGTGCACCACCTCCACCAGAGCCCCGTGATTGTCCCCAAGAATGCGACTGTCCCCCCAACTTCCCCACAGCCATGTACTGTGACAACCGCAACCTCAAGTACCTGCCTTTTGTGCCCTCCCGCATGAAGTACGTCTACTTCCAGAACAACCAGATCTCTGCCATCCAGGAAGGTGTCTTTGACAATGCCACTGGGCTCCTCTGGGTCGCTCTACATGGCAACCAGATTACCAGTGACAAGGTAGGCAGGAAAGTCTTCTCCAAGCTGAGGCACTTGGAGAGGCTGTACTTGGACCACAACAACCTGACCCGGATGCCCGGCCCGCTGCCCCGATCCCTGAGAGAGCTCCACCTGGACCACAACCAGATCTCACGGGTCCCCAACAATGCTTTGGAGGGCCTGGAGAACCTCACGGCCTTATATCTCCACCACAATGAGATCCAGGAAGTGGGGAGTTCCATGAGAGGCCTCCGGTCCCTGATCCTACTAGACCTGAGTTATAACCACCTTCGGAGGGTACCCGACGGTCTGCCCTCAGCCCTGGAGCAGCTGTACCTAGAACACAACAATGTCTACACCGTCCCTGACAGCTACTTCCGGGGGTCACCCAAGCTGCTGTACGTCCGGTTGTCTCACAACAGTCTCACTAACAACGGCCTTGCTACCAACACCTTCAACTCCAGCAGCCTTCTTGAGCTAGACTTGTCTTACAATCAGCTGCAGAAGATCCCTCCTGTCAACACCAACCTGGAGAATCTTTACCTCCAGGGCAACAGGATCAATGAGTTCTCCATCAGCAGCTTCTGCACGGTGGTGGACGTCATGAACTTCTCCAAGCTGCAGGTGCTACGCCTGGATGGGAACGAGATCAAGCGCAGCGCAATGCCGGTGGACGCCCCACTCTGCCTGCGCCTCGCCAACCTCATCGAGATCACTAGTAA

Assays:
Format in all cases: cell-based, mouse
[1] = system: pluripotent cells C3H10T1/2, ST2 and C2C12; assay: Wnt-frizzled pathway and osteoblast differentiation, alkaline phosphatase measurement in pluripotent cells; conditions: for effect on the activity of Wnt proteins (Wnt1, Wnt2, Wnt3a), alkaline phosphatase measurement: C3H10T1/2
From the text: FIGS. 1 to 7 represents the relationship between members of the Wnt-frizzled family, with bone formation, by measurement of alkaline phosphatase (ALP).
The inventors have also tested the capacity of Fz1 to interact with Wnt proteins and thus affect osteoblast differentiation. Overexpression of Fz1 decreased the activity of Wnt1, Wnt2 and Wnt3a in pluripotent cells C3H10T1/2 as determined by the alkaline phosphatase measurement (FIG. 4). However the expression of Fz3 or Fz4 increased the activity of Wnt proteins in the differentiation process (FIG. 6). […] This indicate that Frizzled may negatively or positively cooperate with their ligand proteins, Wnt, in these bone-related cells.
(§1) Mouse cell lines representing different stages of osteoblastic differentiation, C2C12, C2H10T1/2, ST2 and MC3T3-E1, were grown in the presence of agents capable of the induction of osteoblastic differentiation in vitro such as BMP2 and Sonic Hedgehog or in the presence of TGF beta (negative control) or with serum alone. Primary cells derived from mouse calvaria were also cultured for 0, 2, 7 14 and 21 days and RNA prepared for each time point. For example, C3H10T ½ and C2C12 can be obtained from the ATCC (Manassas, Va., USA) under the collection numbers CCL-226 and CRL-1772, respectively.

[2] = system: C2C12 cells; assay: Transient over-expression of candidate genes, cooperation with BMP2 by measurement of alkaline phosphatase; parameters: key: +: positive or negative cooperation with BMP2; −: positive or negative cooperation with BMP2
Method: as §1
(§2) The candidates genes are cloned in expression vectors and their ability to express a protein of the expected size verified by COS cells transient transfection. The genes are then transfected in C3H10T1/2 cells and/or C2C12 cells (transient over-expression) and positive or negative cooperation with BMP2 is evaluated by the measurement of alkaline phosphatase (enzymatic assay and TaqMan) at 48 hours. Controls of positive cooperation, recombinant Sonic Hedgehog, or negative cooperation, recombinant Noggin, are included in each test.

[3] = system: C3H10T1/2 cells; assay: as above; parameters: key: +: positive or negative cooperation with BMP2; −: positive or negative cooperation with BMP2; conditions: for Validation in vitro (coop over BMP2) C3H10T1/2: alkaline phosphatase
Method: as §1, §2

Molecule | Validation in vitro (coop over BMP2) C2C12 [2] | Validation in vitro (coop over BMP2) C3H10T1/2 [3] | further results
O=c1cc(-c2ccc(O)cc2)oc2cc(O)cc(O)c12 [Apigenin, reference compound] |  |  | activity of BMP-2 and Shh ([1]; C3H10T1/2, ST2 and C2C12): able to block
Fz4: frizzled receptor expressed in C3H10T1/2 cells |  |  | effect on the activity of Wnt proteins (Wnt1, Wnt2, Wnt3a), alkaline phosphatase measurement ([1]; overexpression): increased
Wnt3a |  |  | production of alkaline phosphatase (osteoblast differentiation) ([1]; overexpression, C3H10T1/2, ST2 and C2C12): increases
SEQ ID No 37: candidate gene, receptor tyrosine kinase Ufo/Ax1, overexpressed in cells |  |  | BMP2 induced Alkaline phosphatase activity ([1]; overexpressed in C2C12 or C3H10T1/2 cells): repress
TCF4: TCF protein, transcription factor of the Wnt pathway |  |  | effect on BMP-2 ([1]; C3H10T1/2 cells): inhibitors
Fz3: frizzled receptor expressed in C3H10T1/2 cells |  |  | effect on the activity of Wnt proteins (Wnt1, Wnt2, Wnt3a), alkaline phosphatase measurement ([1]; overexpression): increased
B1 | − | − | 
B2 | − | − | 
B3 | − | − | 
B4 | − | − | Validation in C2H10T1/2 (coop over BMP2) ([3]; alkaline phosphatase at 48 hours): − coop over BMP2
